Laboratory results taken from patent EP1272205B1 (The Johns Hopkins University, dated 2013).

What was measured:
[1] = target: SAF-2 on cells (human eosinophils, basophils, cord blood-derived mast cells; HEK293 cells transfected with full length SAF-2) (human) (UniProt Q9NYZ4); assay: indirect immunofluorescence flow cytometry on human basophils
[2] = target: T1, SAF-2 polypeptide (extracellular domain of sialoadhesin factor-2, released from SAF-2/Fc with Factor Xa) (human, UniProt Q9NYZ4 17-363); assay: BIAcore SPR; mAb captured on rabbit anti-mouse IgG Fc surface, SAF-2 injected
T1 construct: extracellular domain; The BIAcore paragraph says only 'SAF-2 (diluted in HBS buffer)'; also called Siglec-8
T1 sequence (Q9NYZ4 17-363): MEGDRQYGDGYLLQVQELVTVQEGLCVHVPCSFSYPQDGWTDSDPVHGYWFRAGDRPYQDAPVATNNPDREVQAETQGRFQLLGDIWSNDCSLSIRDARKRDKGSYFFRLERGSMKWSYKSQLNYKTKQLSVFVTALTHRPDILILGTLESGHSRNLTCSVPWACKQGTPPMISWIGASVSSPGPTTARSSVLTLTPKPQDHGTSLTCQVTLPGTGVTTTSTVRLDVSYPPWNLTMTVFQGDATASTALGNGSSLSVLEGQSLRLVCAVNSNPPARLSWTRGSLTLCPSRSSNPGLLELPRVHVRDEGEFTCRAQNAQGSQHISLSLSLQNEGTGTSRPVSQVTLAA

[3] = target: T1, SAF-2 polypeptide (extracellular domain …); assay: BIAcore SPR; mAb captured on rabbit anti-mouse IgG Fc surface, SAF-2 injected; calculated from rates

SAF-2 on cells (human eosinophils, basophils, cord blood-derived mast cells; HEK293 cells transfected with full length SAF-2) (human), sequence (Q9NYZ4 17-499): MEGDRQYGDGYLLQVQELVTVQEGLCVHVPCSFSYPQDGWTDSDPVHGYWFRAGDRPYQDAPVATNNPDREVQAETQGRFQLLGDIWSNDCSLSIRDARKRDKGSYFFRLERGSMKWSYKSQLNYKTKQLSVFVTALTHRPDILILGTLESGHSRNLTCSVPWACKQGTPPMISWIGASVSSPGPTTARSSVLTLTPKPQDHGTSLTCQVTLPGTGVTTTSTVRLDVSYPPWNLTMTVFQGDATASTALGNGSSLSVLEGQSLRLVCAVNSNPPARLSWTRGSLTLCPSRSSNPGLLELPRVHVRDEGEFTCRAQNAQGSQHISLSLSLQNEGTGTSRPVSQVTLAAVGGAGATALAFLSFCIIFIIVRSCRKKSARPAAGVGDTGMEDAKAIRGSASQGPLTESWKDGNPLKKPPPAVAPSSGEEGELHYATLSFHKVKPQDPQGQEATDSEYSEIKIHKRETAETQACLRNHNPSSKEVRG

percent positive (percent positive) [1]: 21.1
koff [2]: 4.3e-05 s⁻¹
kon [2]: 220000 M⁻¹ s⁻¹
Kd [3]: 0.2 nM
B1: monoclonal antibody 2C4 (antibody, V domains shown)
VH: QVQLKESGPGLVAPSQSLSITCTVSGFSLIYGAHWVRQPPGKGLEWLGVIWAGGSTNYNSALMSRLSISKDNSKSQVFLKINSLQTDDTALYYCARDGSSPYYYSMEYWGQGTSVTVSS
VL: EIILTQSPAIMSASPGEKVSITCSATSSVSYMHWFQQKPGTSPKLWIYSTSNLASGVPVRFSGSGSGTSYSLTISRMEAEDAATYYCQQRSSYPFTFGSGTKLEIKR
notes: also called mAb 2C4
